# Test results published in IntAct's records for PubMed 20190753.
# B1: Vacuolar protein sorting-associated protein 33B (Homo sapiens), Q9H267 (parent)
# chain: MAFPHRPDAPELPDFSMLKRLARDQLIYLLEQLPGKKDLFIEADLMSPLDRIANVSILKQHEVDKLYKVENKPALSSNEQLCFLVRPRIKNMRYIASLVNADKLAGRTRKYKVIFSPQKFYACEMVLEEEGIYGDVSCDEWAFSLLPLDVDLLSMELPEFFRDYFLEGDQRWINTVAQALHLLSTLYGPFPNCYGIGRCAKMAYELWRNLEEEEDGETKGRRPEIGHIFLLDRDVDFVTALCSQVVYEGLVDDTFRIKCGSVDFGPEVTSSDKSLKVLLNAEDKVFNEIRNEHFSNVFGFLSQKARNLQAQYDRRRGMDIKQMKNFVSQELKGLKQEHRLLSLHIGACESIMKKKTKQDFQELIKTEHALLEGFNIRESTSYIEEHIDRQVSPIESLRLMCLLSITENGLIPKDYRSLKTQYLQSYGPEHLLTFSNLRRAGLLTEQAPGDTLTAVESKVSKLVTDKAAGKITDAFSSLAKRSNFRAISKKLNLIPRVDGEYDLKVPRDMAYVFGGAYVPLSCRIIEQVLERRSWQGLDEVVRLLNCSDFAFTDMTKEDKASSESLRLILVVFLGGCTFSEISALRFLGREKGYRFIFLTTAVTNSARLMEAMSEVKA
# partner: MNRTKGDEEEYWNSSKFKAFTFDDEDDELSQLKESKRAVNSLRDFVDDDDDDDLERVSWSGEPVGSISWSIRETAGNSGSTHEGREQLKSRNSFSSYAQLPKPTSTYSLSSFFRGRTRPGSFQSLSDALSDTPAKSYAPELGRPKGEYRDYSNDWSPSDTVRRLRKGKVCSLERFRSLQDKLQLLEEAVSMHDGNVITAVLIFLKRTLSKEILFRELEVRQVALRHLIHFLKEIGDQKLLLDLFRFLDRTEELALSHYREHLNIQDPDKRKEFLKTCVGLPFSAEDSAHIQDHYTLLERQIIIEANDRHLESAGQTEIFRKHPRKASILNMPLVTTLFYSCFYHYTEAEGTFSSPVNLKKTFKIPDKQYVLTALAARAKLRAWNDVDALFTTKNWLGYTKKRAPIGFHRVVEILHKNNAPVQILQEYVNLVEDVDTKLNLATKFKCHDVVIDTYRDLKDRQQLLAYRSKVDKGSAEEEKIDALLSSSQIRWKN
# Variants of: B1
# Settings: with spe39_human VIPAS39, Q9H9C1
row,Variant,effect of a mutation on the interaction
1,L30P,decreasing interaction
